{"source": "patent US20150064134A1", "experiment_in_all_cases": "cell-based or functional assay", "key": {"[1]": {"biological_target": "Abl(Q252H)(h) (human) (UniProt P00519)", "sequence (P00519 27-1130 Q252H limits assumed)": "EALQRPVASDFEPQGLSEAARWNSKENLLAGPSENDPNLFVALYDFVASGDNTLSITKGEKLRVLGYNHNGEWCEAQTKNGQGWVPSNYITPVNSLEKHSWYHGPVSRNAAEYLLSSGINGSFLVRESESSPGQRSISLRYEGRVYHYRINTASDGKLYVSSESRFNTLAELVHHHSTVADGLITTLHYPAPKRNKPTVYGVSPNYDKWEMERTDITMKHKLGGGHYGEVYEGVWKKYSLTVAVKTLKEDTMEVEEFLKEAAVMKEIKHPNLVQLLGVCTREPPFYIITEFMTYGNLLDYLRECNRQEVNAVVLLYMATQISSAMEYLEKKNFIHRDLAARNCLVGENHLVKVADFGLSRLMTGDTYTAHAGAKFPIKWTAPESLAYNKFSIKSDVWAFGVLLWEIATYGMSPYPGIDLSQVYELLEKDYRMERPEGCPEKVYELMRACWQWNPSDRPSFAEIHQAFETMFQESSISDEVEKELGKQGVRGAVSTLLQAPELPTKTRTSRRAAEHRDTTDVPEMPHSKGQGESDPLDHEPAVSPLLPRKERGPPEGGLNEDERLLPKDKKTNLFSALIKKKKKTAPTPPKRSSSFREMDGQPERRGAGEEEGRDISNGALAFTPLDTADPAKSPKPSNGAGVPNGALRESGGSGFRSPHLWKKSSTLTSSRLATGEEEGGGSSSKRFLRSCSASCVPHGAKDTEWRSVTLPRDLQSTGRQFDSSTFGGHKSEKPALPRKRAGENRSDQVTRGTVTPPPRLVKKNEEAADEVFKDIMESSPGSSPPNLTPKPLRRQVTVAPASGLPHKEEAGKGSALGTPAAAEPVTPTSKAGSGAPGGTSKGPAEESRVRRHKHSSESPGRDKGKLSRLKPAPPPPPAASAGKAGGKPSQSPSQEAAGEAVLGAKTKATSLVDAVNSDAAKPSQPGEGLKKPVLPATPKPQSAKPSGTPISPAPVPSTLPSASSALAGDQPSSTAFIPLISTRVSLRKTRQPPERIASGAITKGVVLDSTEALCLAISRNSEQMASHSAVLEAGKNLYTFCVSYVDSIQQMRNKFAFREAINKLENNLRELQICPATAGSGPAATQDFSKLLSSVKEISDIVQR"}, "[2]": {"biological_target": "CDK5/p25(h) (human) (UniProt Q00535)"}, "[3]": {"biological_target": "CK2(h) (human) (UniProt P68400)"}, "[4]": {"biological_target": "CaMKIIδ(h) (human) (UniProt Q13557)"}, "[5]": {"biological_target": "EphB3(h) (human) (UniProt P54753)", "sequence (P54753 581-998 limits assumed)": "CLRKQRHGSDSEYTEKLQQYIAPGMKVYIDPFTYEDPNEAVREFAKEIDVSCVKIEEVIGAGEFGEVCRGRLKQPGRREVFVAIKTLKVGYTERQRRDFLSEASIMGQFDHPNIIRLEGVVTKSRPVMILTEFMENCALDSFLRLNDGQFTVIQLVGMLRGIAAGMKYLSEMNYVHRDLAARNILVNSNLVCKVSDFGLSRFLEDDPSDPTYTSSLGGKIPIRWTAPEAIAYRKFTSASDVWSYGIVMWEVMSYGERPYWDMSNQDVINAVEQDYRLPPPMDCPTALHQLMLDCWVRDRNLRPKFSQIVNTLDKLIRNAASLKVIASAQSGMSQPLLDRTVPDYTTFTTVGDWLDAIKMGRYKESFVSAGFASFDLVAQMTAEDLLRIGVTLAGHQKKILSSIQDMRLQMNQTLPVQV"}, "[6]": {"biological_target": "GRK6(h) (human) (UniProt P43250)"}, "[7]": {"biological_target": "HIPK2(h) (human) (UniProt Q9H2X6)"}, "[8]": {"biological_target": "JNK2α2(h) (human) (UniProt P45984)"}, "[9]": {"biological_target": "Lck(h) activated (human) (UniProt P06239)"}, "[10]": {"biological_target": "MAPKAP-K2(h) (human) (UniProt P49137)"}, "[11]": {"biological_target": "Met(D1246H)(h) (human) (UniProt P08581)"}, "[12]": {"biological_target": "T1, PDK1(h) (human) (UniProt O15530)", "T1 sequence (looked up)": "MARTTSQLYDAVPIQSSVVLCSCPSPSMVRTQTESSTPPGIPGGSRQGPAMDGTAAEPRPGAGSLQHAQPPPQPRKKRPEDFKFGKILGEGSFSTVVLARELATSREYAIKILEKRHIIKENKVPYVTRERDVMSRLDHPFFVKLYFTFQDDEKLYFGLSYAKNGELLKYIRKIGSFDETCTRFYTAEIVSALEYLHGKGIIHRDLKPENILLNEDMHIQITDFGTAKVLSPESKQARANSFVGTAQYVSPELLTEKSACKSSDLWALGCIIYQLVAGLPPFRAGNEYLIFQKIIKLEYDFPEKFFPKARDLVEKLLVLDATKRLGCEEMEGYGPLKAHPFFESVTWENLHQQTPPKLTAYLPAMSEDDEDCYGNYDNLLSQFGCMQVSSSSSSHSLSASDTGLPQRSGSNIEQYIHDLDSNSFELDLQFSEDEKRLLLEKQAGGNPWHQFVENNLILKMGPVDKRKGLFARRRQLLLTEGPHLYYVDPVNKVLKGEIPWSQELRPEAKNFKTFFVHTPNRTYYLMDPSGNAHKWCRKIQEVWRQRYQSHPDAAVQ"}, "[13]": {"biological_target": "PKCε(h) (human) (UniProt Q02156)"}, "[14]": {"biological_target": "Pim-1(h) (human) (UniProt P11309)"}, "[15]": {"biological_target": "Pyk2(h) (human) (UniProt Q14289)"}, "[16]": {"biological_target": "SAPK2b(h) (human) (UniProt Q15759)", "sequence (Q15759 whole entry)": "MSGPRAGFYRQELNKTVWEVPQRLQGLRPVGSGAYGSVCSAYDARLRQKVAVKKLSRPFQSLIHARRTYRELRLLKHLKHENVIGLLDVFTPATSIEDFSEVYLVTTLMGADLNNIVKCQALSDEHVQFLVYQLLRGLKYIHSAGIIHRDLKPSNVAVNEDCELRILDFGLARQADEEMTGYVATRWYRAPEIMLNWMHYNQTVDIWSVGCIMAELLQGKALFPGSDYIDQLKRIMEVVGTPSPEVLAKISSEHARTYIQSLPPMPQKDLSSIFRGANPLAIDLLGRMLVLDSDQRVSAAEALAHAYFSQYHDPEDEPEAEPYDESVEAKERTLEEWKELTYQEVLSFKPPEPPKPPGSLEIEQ"}, "[17]": {"biological_target": "T2, SGK3(h) (human) (UniProt Q96BR1)", "T2 sequence (looked up)": "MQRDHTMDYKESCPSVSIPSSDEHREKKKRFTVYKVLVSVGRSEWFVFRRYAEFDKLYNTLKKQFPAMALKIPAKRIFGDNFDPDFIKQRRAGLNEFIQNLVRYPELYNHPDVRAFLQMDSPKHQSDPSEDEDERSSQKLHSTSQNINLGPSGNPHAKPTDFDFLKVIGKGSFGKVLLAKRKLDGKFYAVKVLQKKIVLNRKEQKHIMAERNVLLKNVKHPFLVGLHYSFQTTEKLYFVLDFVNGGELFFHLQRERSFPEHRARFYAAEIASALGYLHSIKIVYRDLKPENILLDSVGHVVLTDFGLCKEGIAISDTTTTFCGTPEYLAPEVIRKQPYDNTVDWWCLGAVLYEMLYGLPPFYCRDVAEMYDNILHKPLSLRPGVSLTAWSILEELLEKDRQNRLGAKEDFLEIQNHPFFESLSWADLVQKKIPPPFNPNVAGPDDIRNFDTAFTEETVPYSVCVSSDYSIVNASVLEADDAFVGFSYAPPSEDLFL"}, "[18]": {"biological_target": "T3, TBK1(h) (human) (UniProt Q9UHD2)", "T3 sequence (looked up)": "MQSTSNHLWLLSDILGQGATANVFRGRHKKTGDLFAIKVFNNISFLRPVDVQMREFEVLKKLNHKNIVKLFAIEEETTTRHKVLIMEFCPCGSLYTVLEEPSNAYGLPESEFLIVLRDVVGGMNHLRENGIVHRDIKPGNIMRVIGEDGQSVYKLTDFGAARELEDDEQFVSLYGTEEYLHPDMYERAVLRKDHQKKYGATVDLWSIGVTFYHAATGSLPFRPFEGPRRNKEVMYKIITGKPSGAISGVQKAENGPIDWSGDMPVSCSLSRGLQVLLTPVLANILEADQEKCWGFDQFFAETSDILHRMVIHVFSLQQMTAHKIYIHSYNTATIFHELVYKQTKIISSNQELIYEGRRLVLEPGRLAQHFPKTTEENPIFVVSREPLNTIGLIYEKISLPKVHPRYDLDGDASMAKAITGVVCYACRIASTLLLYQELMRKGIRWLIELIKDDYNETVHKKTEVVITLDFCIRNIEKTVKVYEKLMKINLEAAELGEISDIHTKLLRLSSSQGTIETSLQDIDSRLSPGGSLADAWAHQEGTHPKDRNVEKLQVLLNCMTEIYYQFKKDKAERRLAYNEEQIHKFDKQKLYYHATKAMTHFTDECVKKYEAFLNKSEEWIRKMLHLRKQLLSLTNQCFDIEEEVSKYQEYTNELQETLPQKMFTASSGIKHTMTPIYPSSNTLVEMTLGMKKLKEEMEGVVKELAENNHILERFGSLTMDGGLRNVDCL"}, "[19]": {"biological_target": "mTOR/FKBP12(h) (human) (UniProt P42345)", "sequence (P42345 1362-2549 limits assumed, chain 1 of 2)": "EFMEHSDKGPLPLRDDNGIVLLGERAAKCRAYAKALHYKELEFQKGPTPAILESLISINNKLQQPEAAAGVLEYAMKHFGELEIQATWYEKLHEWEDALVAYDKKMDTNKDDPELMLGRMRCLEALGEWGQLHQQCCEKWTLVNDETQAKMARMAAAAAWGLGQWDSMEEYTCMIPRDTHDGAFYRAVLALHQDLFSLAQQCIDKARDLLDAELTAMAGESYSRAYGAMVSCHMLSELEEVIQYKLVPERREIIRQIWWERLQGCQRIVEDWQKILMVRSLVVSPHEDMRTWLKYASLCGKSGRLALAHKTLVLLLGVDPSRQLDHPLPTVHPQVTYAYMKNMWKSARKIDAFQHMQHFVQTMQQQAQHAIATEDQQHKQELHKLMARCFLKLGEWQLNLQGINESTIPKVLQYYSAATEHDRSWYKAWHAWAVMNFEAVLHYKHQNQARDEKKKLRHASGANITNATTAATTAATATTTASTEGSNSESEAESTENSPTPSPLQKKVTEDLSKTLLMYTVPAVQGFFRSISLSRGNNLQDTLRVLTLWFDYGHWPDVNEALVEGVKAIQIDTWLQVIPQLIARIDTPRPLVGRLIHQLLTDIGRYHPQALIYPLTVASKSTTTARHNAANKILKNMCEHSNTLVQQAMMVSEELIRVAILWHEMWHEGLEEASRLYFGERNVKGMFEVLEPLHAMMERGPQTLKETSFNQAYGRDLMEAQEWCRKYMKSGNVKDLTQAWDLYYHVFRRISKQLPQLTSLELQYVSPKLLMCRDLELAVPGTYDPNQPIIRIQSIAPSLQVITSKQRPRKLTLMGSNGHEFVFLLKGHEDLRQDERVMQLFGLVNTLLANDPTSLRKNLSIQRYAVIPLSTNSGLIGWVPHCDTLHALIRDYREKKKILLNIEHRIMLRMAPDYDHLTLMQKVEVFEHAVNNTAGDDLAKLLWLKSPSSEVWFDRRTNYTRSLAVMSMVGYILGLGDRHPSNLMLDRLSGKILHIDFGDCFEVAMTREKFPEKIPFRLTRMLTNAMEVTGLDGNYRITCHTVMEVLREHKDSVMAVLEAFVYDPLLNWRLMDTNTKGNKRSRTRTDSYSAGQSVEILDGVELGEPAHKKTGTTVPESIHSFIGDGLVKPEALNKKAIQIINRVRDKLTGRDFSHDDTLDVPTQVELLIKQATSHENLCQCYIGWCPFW", "sequence (P62942 whole entry, chain 2 of 2, further chain)": "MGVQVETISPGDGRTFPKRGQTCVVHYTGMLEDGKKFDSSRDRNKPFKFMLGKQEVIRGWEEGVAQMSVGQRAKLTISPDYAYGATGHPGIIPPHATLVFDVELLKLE"}}}
{"substance": "MMI-0300 (peptide)", "values": [{"measurement": "% activity at 100 µM", "setting": "[1]", "result": 82, "unit": "%"}, {"measurement": "% activity at 100 µM", "setting": "[2]", "result": 89, "unit": "%"}, {"measurement": "% activity at 100 µM", "setting": "[3]", "result": 90, "unit": "%"}, {"measurement": "% activity at 100 µM", "setting": "[4]", "result": 1, "unit": "%"}, {"measurement": "% activity at 100 µM", "setting": "[5]", "result": 62, "unit": "%"}, {"measurement": "% activity at 100 µM", "setting": "[6]", "result": 147, "unit": "%"}, {"measurement": "% activity at 100 µM", "setting": "[7]", "result": 73, "unit": "%"}, {"measurement": "% activity at 100 µM", "setting": "[8]", "result": 98, "unit": "%"}, {"measurement": "% activity at 100 µM", "setting": "[9]", "result": 243, "unit": "%"}, {"measurement": "% activity at 100 µM", "setting": "[10]", "result": 5, "unit": "%"}, {"measurement": "% activity at 100 µM", "setting": "[11]", "result": 125, "unit": "%"}, {"measurement": "% activity at 100 µM", "setting": "[12]", "result": 135, "unit": "%"}, {"measurement": "% activity at 100 µM", "setting": "[13]", "result": 79, "unit": "%"}, {"measurement": "% activity at 100 µM", "setting": "[14]", "result": 8, "unit": "%"}, {"measurement": "% activity at 100 µM", "setting": "[15]", "result": 47, "unit": "%"}, {"measurement": "% activity at 100 µM", "setting": "[16]", "result": 81, "unit": "%"}, {"measurement": "% activity at 100 µM", "setting": "[17]", "result": 10, "unit": "%"}, {"measurement": "% activity at 100 µM", "setting": "[18]", "result": 37, "unit": "%"}, {"measurement": "% activity at 100 µM", "setting": "[19]", "result": 145, "unit": "%"}]}
{"substance": "MMI-0400 (peptide)", "values": [{"measurement": "% activity at 100 µM", "setting": "[1]", "result": 98, "unit": "%"}, {"measurement": "% activity at 100 µM", "setting": "[2]", "result": 92, "unit": "%"}, {"measurement": "% activity at 100 µM", "setting": "[3]", "result": 101, "unit": "%"}, {"measurement": "% activity at 100 µM", "setting": "[4]", "result": 2, "unit": "%"}, {"measurement": "% activity at 100 µM", "setting": "[5]", "result": 47, "unit": "%"}, {"measurement": "% activity at 100 µM", "setting": "[6]", "result": 141, "unit": "%"}, {"measurement": "% activity at 100 µM", "setting": "[7]", "result": 90, "unit": "%"}, {"measurement": "% activity at 100 µM", "setting": "[8]", "result": 96, "unit": "%"}, {"measurement": "% activity at 100 µM", "setting": "[9]", "result": 216, "unit": "%"}, {"measurement": "% activity at 100 µM", "setting": "[10]", "result": 5, "unit": "%"}, {"measurement": "% activity at 100 µM", "setting": "[11]", "result": 68, "unit": "%"}, {"measurement": "% activity at 100 µM", "setting": "[12]", "result": 159, "unit": "%"}, {"measurement": "% activity at 100 µM", "setting": "[13]", "result": 59, "unit": "%"}, {"measurement": "% activity at 100 µM", "setting": "[14]", "result": 7, "unit": "%"}, {"measurement": "% activity at 100 µM", "setting": "[15]", "result": 34, "unit": "%"}, {"measurement": "% activity at 100 µM", "setting": "[16]", "result": 82, "unit": "%"}, {"measurement": "% activity at 100 µM", "setting": "[17]", "result": 8, "unit": "%"}, {"measurement": "% activity at 100 µM", "setting": "[18]", "result": 39, "unit": "%"}, {"measurement": "% activity at 100 µM", "setting": "[19]", "result": 125, "unit": "%"}]}
{"substance": "MMI-0500 (peptide)", "values": [{"measurement": "% activity at 100 µM", "setting": "[1]", "result": 40, "unit": "%"}, {"measurement": "% activity at 100 µM", "setting": "[2]", "result": 66, "unit": "%"}, {"measurement": "% activity at 100 µM", "setting": "[3]", "result": 93, "unit": "%"}, {"measurement": "% activity at 100 µM", "setting": "[4]", "result": 1, "unit": "%"}, {"measurement": "% activity at 100 µM", "setting": "[5]", "result": 79, "unit": "%"}, {"measurement": "% activity at 100 µM", "setting": "[6]", "result": 174, "unit": "%"}, {"measurement": "% activity at 100 µM", "setting": "[7]", "result": 38, "unit": "%"}, {"measurement": "% activity at 100 µM", "setting": "[8]", "result": 81, "unit": "%"}, {"measurement": "% activity at 100 µM", "setting": "[9]", "result": 76, "unit": "%"}, {"measurement": "% activity at 100 µM", "setting": "[10]", "result": 9, "unit": "%"}, {"measurement": "% activity at 100 µM", "setting": "[11]", "result": 150, "unit": "%"}, {"measurement": "% activity at 100 µM", "setting": "[12]", "result": 178, "unit": "%"}, {"measurement": "% activity at 100 µM", "setting": "[13]", "result": 23, "unit": "%"}, {"measurement": "% activity at 100 µM", "setting": "[14]", "result": 0, "unit": "%"}, {"measurement": "% activity at 100 µM", "setting": "[15]", "result": 46, "unit": "%"}, {"measurement": "% activity at 100 µM", "setting": "[16]", "result": 42, "unit": "%"}, {"measurement": "% activity at 100 µM", "setting": "[17]", "result": -3, "unit": "%"}, {"measurement": "% activity at 100 µM", "setting": "[18]", "result": 16, "unit": "%"}, {"measurement": "% activity at 100 µM", "setting": "[19]", "result": 140, "unit": "%"}]}
